The record followed here is patent US20030236190A1 (published 2003).

No end group written: not given here.

Assay [1] addresses T1, Soluble IGF-1R (R&D Systems, Cat. # 391-GR/CF); recombinant human IGF-1R (human, UniProt P08069 31-935).
T1 construct: extracellular domain; Eu3+-labelled in the TR-FRET assays; also called sIGF-1R; rhIGF-1R
Put plainly: phage ELISA vs milk. For orientation: ELISA stands for enzyme-linked immunosorbent assay.

Assay [2] has as its target T2, Insulin receptor prepared according to Bass et al., 1996: soluble human insulin receptor-immunoglobulin heavy … (human, UniProt P06213 28-956).
T2 construct: extracellular domain; Eu3+-labelled in TR-FRET; also called IR; sIR-Fc; not shown: immunoglobulin heavy chain constant domains that replace the transmembrane and i
Description: phage ELISA vs milk.

For assay [3], the target named is T2, Insulin receptor prepared according to …. Put plainly: phage ELISA, vs IGF-1R.
Assay [4] has as its target T1, Soluble IGF-1R (R&D Systems, Cat. # …). Put plainly: phage ELISA, vs IR.

B1: 142CA-3-D8-IGFR (peptide)
peptide: NYRRQVFNGNFYDWFDRQVFSLVTPG
For B1, the results for the “Ratio over Background” value in assay [1] and in assay [2] were 7.2 fold and 1.8 fold, respectively. For the same molecule, the “IR/IGF-1R Comparison” value in assay [3] stood at 0.3 ratio. Further, the “IGF-1R/IR Comparison” value in assay [4] turned out to be 4 ratio.

B2: H2CA-2-B9-IGFR (peptide)
peptide: RAGSSDFHEDFYEWFVRQVSLSLKGK
Consider B2, for which the “Ratio over Background” value is 7 fold in assay [1] and 1.7 fold in assay [2]. In addition, in assay [3], the “IR/IGF-1R Comparison” value is 0.2 ratio. Also, the “IGF-1R/IR Comparison” value in assay [4] was found to be 4.2 ratio.

B3: H2CA-4-F1-IGFR (peptide)
peptide: FYVQQWGHENFYDWFDRQVSQSGGAG
On to B3, for which the “Ratio over Background” value in assay [1] came to 3.5 fold; in assay [2], 0.9 fold. Further, the “IR/IGF-1R Comparison” value in assay [3] came out at 0.3 ratio. Moreover, the “IGF-1R/IR Comparison” value in assay [4] is 3.8 ratio.

B4: N2CA-3-D6-IGFR (peptide)
peptide: QSPVGSSHEDFYDWFFRQVAQSGAHQ
B4: the figures for the “Ratio over Background” value in assay [1] and in assay [2] were 9 fold and 2.2 fold, respectively. Moreover, the “IR/IGF-1R Comparison” value in assay [3] was 0.3 ratio. In assay [4], the “IGF-1R/IR Comparison” value was 4 ratio.

B5: H2CA-4-F1O-IGFR (peptide)
peptide: VNQSGSIHENFYDWFERQVSHQRGVR
As to B5, the entries for the “Ratio over Background” value in assay [1] and in assay [2] were 5.7 fold and 1 fold, respectively. Moreover, in assay [3], the “IR/IGF-1R Comparison” value came to 0.2 ratio. Besides, the “IGF-1R/IR Comparison” value in assay [4] amounted to 5.9 ratio.

B6: H2CA-4-G11-IGFR (peptide)
peptide: TLDGGSFEEQFYDWFVRQLSYRTNPD
As to B6, the entries for the “Ratio over Background” value in assay [1] and in assay [2] were 9.5 fold and 2.5 fold, respectively. Further, the “IR/IGF-1R Comparison” value in assay [3] is 0.3 ratio. In assay [4], the “IGF-1R/IR Comparison” value is 3.9 ratio.

B7: H2CA-4-86-GFR (peptide)
peptide: AVRATRFDEAFYDWFVRQISDGQGNK
Turning to B7, the “Ratio over Background” value in assay [1] turned out to be 7.3 fold; in assay [2], 1.1 fold. The “IR/IGF-1R Comparison” value in assay [3] was 0.2 ratio. Moreover, in assay [4], the “IGF-1R/IR Comparison” value worked out at 6.4 ratio.

B8: H2CA-3-D7-IGFR (peptide)
peptide: LRRQAPVEENFYDWFVRQVSGDRVGG
On to B8, for which the “Ratio over Background” value is 3 fold in assay [1] and 0.8 fold in assay [2]. Moreover, the “IR/IGF-1R Comparison” value in assay [3] was found to be 0.3 ratio. Moreover, the “IGF-1R/IR Comparison” value in assay [4] was 3.7 ratio.

B9: N2CA-4-F7-IGFR (peptide)
peptide: SSIGGGFHENFYDWFSRQLSQSPPLK
For B9, the “Ratio over Background” value came out at 3.2 fold in assay [1] and 0.8 fold in assay [2]. Also, the “IR/IGF-1R Comparison” value in assay [3] came out at 0.2 ratio. In addition, in assay [4], the “IGF-1R/IR Comparison” value amounted to 4.1 ratio.

B10: H2CA-1-A3-IGFR (peptide)
peptide: APDPSDFQEIFYDWFVRQVSRMPGGG
On to B10, for which the “Ratio over Background” value in assay [1] turned out to be 3.8 fold; in assay [2], 0.8 fold. The “IR/IGF-1R Comparison” value in assay [3] was 0.2 ratio. Moreover, the “IGF-1R/IR Comparison” value in assay [4] stood at 5.1 ratio.

B11: H2CA-4-H4-IGFR (peptide)
peptide: QAVQPGFHEEFYDWFVRQVSTGVGGG
With B11, the results for the “Ratio over Background” value in assay [1] and in assay [2] were 4.1 fold and 1 fold, respectively. The “IR/IGF-1R Comparison” value in assay [3] turned out to be 0.2 ratio. Also, the “IGF-1R/IR Comparison” value in assay [4] was 4.2 ratio.

B12: E4Da-4-H2-IR (peptide)
peptide: GFREGNFYEWFQAQVT
Take B12: the “Ratio over Background” value worked out at 33.9 fold in assay [1] and 8.2 fold in assay [2]. In assay [3], the “IR/IGF-1R Comparison” value was 0.2 ratio. Also, the “IGF-1R/IR Comparison” value in assay [4] came out at 4.1 ratio.

B13: H2CA-3-C8-IGFR (peptide)
peptide: SSCDGAGHESFYEWFVRQVSGCRSV
modifications: not fully specified (bridges); cysteine pairing not given here
On to B13, for which the “Ratio over Background” value in assay [1] worked out at 5.6 fold; in assay [2], 1.2 fold. Further, the “IR/IGF-1R Comparison” value in assay [3] was determined as 0.2 ratio. In addition, the “IGF-1R/IR Comparison” value in assay [4] is 4.8 ratio.
